# Reference: US7012061B1 (New York University, priority 1998, dated 2006)
# B1: IL-12: Murine rIL-12 provided by Genetics Institute (protein, UniProt P43431 23-215; P43432 23-335, looked up)
# Interleukin-12 subunit alpha: RVIPVSGPARCLSQSRNLLKTTDDMVKTAREKLKHYSCTAEDIDHEDITRDQTSTLKTCLPLELHKNESCLATRETSSTTRGSCLPPQKTSLMMTLCLGSIYEDLKMYQTEFQAINAALQNHNHQQIILDKGMLVAIDELMQSLNHNGETLRQKPPVGEADPYRVKMKLCILLHAFSTRVVTINRVMGYLSSA
# Interleukin-12 subunit beta: MWELEKDVYVVEVDWTPDAPGETVNLTCDTPEEDDITWTSDQRHGVIGSGKTLTITVKEFLDAGQYTCHKGGETLSHSHLLLHKKENGIWSTEILKNFKNKTFLKCEAPNYSGRFTCSWLVQRNMDLKFNIKSSSSSPDSRAVTCGMASLSAEKVTLDQRDYEKYSVSCQEDVTCPTAEETLPIELALEARQQNKYENYSTSFFIRDIIKPDPPKNLQMKPLKNSQVEVSWEYPDSWSTPHSYFSLKFFVRIQRKKEKMKETEEGCNQKGAFLVEKTSTEVQCKGGNVCVQAQDRYYNSSCSKWACVPCRVRS
# How the values were obtained:
# blood brain barrier [1] = conditions: mouse, in vivo
# [2] = parameters: species or system mice; conditions: mouse, in vivo
# IFN-R = tested on: IFN-R; parameters: species or system mice; key: − = no visual staining; + = minimal staining; ++ = moderate staining; +++ = strong staining; conditions: mouse, in vivo
# IL-12 = tested on: IL-12; parameters: species or system mice; key: − = no visual staining; + = minimal staining; ++ = moderate staining; +++ = strong staining; conditions: mouse, in vivo
# VSV protein = format: cell-based, Vesicular stomatitis virus
# MHC-II = tested on: MHC-II; parameters: species or system mice; key: − = no visual staining; + = minimal staining; ++ = moderate staining; +++ = strong staining; conditions: mouse, in vivo
# VSV [3] = format: in vivo, mice; conditions: mouse, in vivo
# VSV mRNA (N gene) = format: cell-based, Vesicular stomatitis virus
# VSV [4] = tested on: VSV; parameters: species or system mice; key: − = no visual staining; + = minimal staining; ++ = moderate staining; +++ = strong staining; conditions: mouse, in vivo
# blood brain barrier [5] = tested on: blood brain barrier; parameters: species or system mice; conditions: mouse, in vivo
# VSV [6] = tested on: VSV; parameters: species or system mice; conditions: mouse, in vivo, ip
# MHC-I = tested on: MHC-I; parameters: species or system mice; key: − = no visual staining; + = minimal staining; ++ = moderate staining; +++ = strong staining; conditions: mouse, in vivo; note: test concentration or dose not given here
molecule,measurement,setting,value
B1,"Integrity of the BBB (TEM, intercellular junction gaps)",blood brain barrier [1],not enough to disrupt the integrity of the BBB
same,Time at which weight exceeded initial measurements,[2],≤ 12 days after infection
same,Time at which weight exceeded initial measures,[2],≤ 12 days after infection
same,Weight loss recovery from VSV infection,[2],rapidly recover from the weight loss
same,IFN-R relative intensity of staining,IFN-R,++ and − and +
same,IL-12 relative intensity of staining,IL-12,+ and − and ++
same,Difference in relative amounts of viral protein between treated and untreated samples,VSV protein,approximately 80%
same,MHC-II relative intensity of staining,MHC-II,++ and + and +++ and −
same,Decrease of VSV titer in brain homogenates,VSV [3],about 100 fold
same,Difference in relative amounts of viral mRNA between treated and untreated samples,VSV mRNA (N gene),approximately 20%
same,VSV relative intensity of staining,VSV [4],+++ and ++ and + and −
same,Breakage of the BBB (Evans blue),blood brain barrier [5],did not show breakage of the BBB
same,Number of survivors versus control medium,VSV [6],greater
same,Survival and weight recovery from VSV infection,VSV [6],not able to rescue
same,Survival rate from VSV infection versus control mice,VSV [6],twice the survival rate
same,MHC-I relative intensity of staining,MHC-I,++ and + and +++ and −
